Assay results published in patent US20260098059A1 (ENDOMET BIOSCIENCES, published 2026).
Where “and” joins values, the source holds several entries; their conditions need not be identical. Equal entries are not always repeated. Bridges are numbered along the chain shown (N, C = ends). Where no end group is shown, it is not given here. [ ]: non-standard residue; d: D form. Chg = N[C@H](C(=O)O)C1CCCCC1; NMeA = CN[C@@H](C)C(=O)O

T1: β-catenin (UniProt P35222 134-665, limits assumed, biotinylated in the SPR and plate assays)
T1 construct: also called beta catenin; biotinylated β-catenin
T1 sequence (looked up): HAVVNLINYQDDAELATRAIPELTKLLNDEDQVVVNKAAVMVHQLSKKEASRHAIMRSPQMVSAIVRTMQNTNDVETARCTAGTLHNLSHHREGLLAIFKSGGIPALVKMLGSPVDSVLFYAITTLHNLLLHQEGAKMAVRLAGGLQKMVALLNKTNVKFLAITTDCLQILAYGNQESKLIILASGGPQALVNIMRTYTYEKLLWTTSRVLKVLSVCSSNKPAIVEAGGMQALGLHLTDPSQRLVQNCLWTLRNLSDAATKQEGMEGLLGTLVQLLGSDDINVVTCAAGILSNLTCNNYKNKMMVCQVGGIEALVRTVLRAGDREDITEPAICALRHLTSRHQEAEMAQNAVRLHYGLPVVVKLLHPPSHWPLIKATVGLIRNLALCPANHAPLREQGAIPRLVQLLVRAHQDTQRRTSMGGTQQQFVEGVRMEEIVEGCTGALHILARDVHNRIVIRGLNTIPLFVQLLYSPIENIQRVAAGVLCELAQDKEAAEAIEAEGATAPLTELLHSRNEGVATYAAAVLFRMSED


biological target: T1, β-catenin; experiment: competitive FP
Text: Fluorescence polarization (FP) is another method used to analyze protein-ligand interactions. This methodology measures the change in fluorescence light emitted by a labelled compound free vs. conjugated to another compound in solution. Upon binding of the fluorescent molecule to a complex, polarization increases because of limited rotation of the fluorescent tracer. Competitive FP is often utilized in drug screens as it is formatted for high throughput screens in a plate format. This immunoassay is performed by introducing a non-conjugated drug to compete for binding to the labelled competitor-ligand complex, leading to a reduction in polarization. […] Exemplary methodology is described in Example 13. Data were analyzed and plotted in Microsoft Excel (Microsoft, Redmond, WA).
Varying concentrations of β-catenin inhibitor candidate (SEQ ID NO: 404) were then added in a series of serial dilutions from 10 nM to 30 uM of inhibitor in different wells of the plate. The fluorescence polarization was read by Infinite M1000 (Tecan, Baldwin Park CA) at excitation wavelength of 470 nm and measured at emission wavelength of 520 nm. […] The experiments were performed three times and data were analyzed and plotted in Microsoft Excel (Microsoft, Redmond, WA).

| Binder | Kd |
| --- | --- |
| RRWPQKILDEHVRRVWR (HELM PEPTIDE1{[ac].R.R.W.P.Q.K.I.L.D.E.H.V.R.R.V.W.R.[am]}$PEPTIDE1,PEPTIDE1,7:R3-11:R3$$$V2.0; SMILES CC[C@H](C)[C@@H]1NC(=O)[C@@H](NC(=O)[C@H](CCC(N)=O)NC(=O)[C@@H]2CCCN2C(=O)[C@H](Cc2c[nH]c3ccccc23)NC(=O)[C@H](CCCNC(=N)N)NC(=O)[C@H](CCCNC(=N)N)NC(C)=O)CCCCNC(=O)CC[C@@H](C(=O)N[C@@H](Cc2c[nH]cn2)C(=O)N[C@H](C(=O)N[C@@H](CCCNC(=N)N)C(=O)N[C@@H](CCCNC(=N)N)C(=O)N[C@H](C(=O)N[C@@H](Cc2c[nH]c3ccccc23)C(=O)N[C@@H](CCCNC(=N)N)C(N)=O)C(C)C)C(C)C)NC(=O)[C@H](CC(=O)O)NC(=O)[C@H](CC(C)C)NC1=O) [SEQ ID NO: 429] | > 400 nM and ≤ 1000 nM |
| [NMeA]QKILNEH[Chg]QRVWG-NH2 (lactam 3-7; not fully specified (N-terminus); printed as H23C11C(O)NH-NMeA-QK*ILNE*H-Chg-QRVWG-NH2) [SEQ ID NO: 434] | ≤ 400 nM |

The next lines start with the values.

| Kd | Binder |
| --- | --- |
| ≤ 400 nM | WAQKILDEHGQRVW (HELM PEPTIDE1{[ac].W.[meA].Q.K.I.L.D.E.H.[O=C([C@@H](N[*:1])C1CCCCC1)[*:2]].Q.R.V.W.[am]}$PEPTIDE1,PEPTIDE1,5:R3-9:R3$$$V2.0; SMILES CC[C@H](C)[C@@H]1NC(=O)[C@@H](NC(=O)[C@H](CCC(N)=O)NC(=O)[C@H](C)N(C)C(=O)[C@H](Cc2c[nH]c3ccccc23)NC(C)=O)CCCCNC(=O)CC[C@@H](C(=O)N[C@@H](Cc2c[nH]cn2)C(=O)N[C@H](C(=O)N[C@@H](CCC(N)=O)C(=O)N[C@@H](CCCNC(=N)N)C(=O)N[C@H](C(=O)N[C@@H](Cc2c[nH]c3ccccc23)C(N)=O)C(C)C)C2CCCCC2)NC(=O)[C@H](CC(=O)O)NC(=O)[C@H](CC(C)C)NC1=O) [SEQ ID NO: 446] |
| > 400 nM and ≤ 1000 nM | AQKILNEHGQRVWG (HELM PEPTIDE1{[ac].[meA].Q.K.I.L.N.E.H.[O=C([C@@H](N[*:1])C1CCCCC1)[*:2]].Q.R.V.W.G.[am]}$PEPTIDE1,PEPTIDE1,4:R3-8:R3$$$V2.0; SMILES CC[C@H](C)[C@@H]1NC(=O)[C@@H](NC(=O)[C@H](CCC(N)=O)NC(=O)[C@H](C)N(C)C(C)=O)CCCCNC(=O)CC[C@@H](C(=O)N[C@@H](Cc2c[nH]cn2)C(=O)N[C@H](C(=O)N[C@@H](CCC(N)=O)C(=O)N[C@@H](CCCNC(=N)N)C(=O)N[C@H](C(=O)N[C@@H](Cc2c[nH]c3ccccc23)C(=O)NCC(N)=O)C(C)C)C2CCCCC2)NC(=O)[C@H](CC(N)=O)NC(=O)[C@H](CC(C)C)NC1=O) [SEQ ID NO: 433] |
| > 400 nM and ≤ 1000 nM | WAESILKEHVQRVWG (HELM PEPTIDE1{[ac].W.[meA].E.S.I.L.K.E.H.V.Q.R.V.W.G.[am]}$PEPTIDE1,PEPTIDE1,4:R3-8:R3$$$V2.0; SMILES CC[C@H](C)[C@@H]1NC(=O)[C@H](CO)NC(=O)[C@@H](NC(=O)[C@H](C)N(C)C(=O)[C@H](Cc2c[nH]c3ccccc23)NC(C)=O)CCC(=O)NCCCC[C@@H](C(=O)N[C@@H](CCC(=O)O)C(=O)N[C@@H](Cc2c[nH]cn2)C(=O)N[C@H](C(=O)N[C@@H](CCC(N)=O)C(=O)N[C@@H](CCCNC(=N)N)C(=O)N[C@H](C(=O)N[C@@H](Cc2c[nH]c3ccccc23)C(=O)NCC(N)=O)C(C)C)C(C)C)NC(=O)[C@H](CC(C)C)NC1=O) [SEQ ID NO: 450] |
